# Reference: the supplement of paper PMC7125110
# ± gives the standard error. This sample holds only a part of the variants without activity.
# B1: glmS ribozyme (parent)
# chain: AUAAAAGCGCCAGAACUACAGAAAUGUAGUUGACGAGGAGGAGGUUUAUCGAAUUUUCGGCGGAUGCCUCCAAA
# Assays:
# Conditions in all cases: with glucosamine-6-phosphate
# [1] = variants of: B1; assay: self-cleavage kobs at 40 uM GlcN6P; higher = faster cleavage; RNA array
# How it was run: (§1)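 Barcoded glmS ribozyme variants on sequenced MiSeq chips were transcribed in situ by E. coli RNA polymerase and tracked through a hybridised Cy3 probe at 37 °C. Glucosamine-6-phosphate (40 μM to 10 mM) in HEPES/KCl/Mg(OAc)2 buffer was flowed in, and tiles were imaged over ~14 h. Signals were normalised to baseline and to non-cleaving reference variants; per-tile medians were fit to one- or two-exponential decays to give kobs. kcat and KM came from weighted Michaelis–Menten fits across concentrations.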
# [2] = variants of: B1; assay: self-cleavage kobs at 160 uM GlcN6P; higher = faster cleavage; RNA array
# How it was run: as §1
# [3] = variants of: B1; assay: self-cleavage kobs at 640 uM GlcN6P; higher = faster cleavage; RNA array
# How it was run: as §1
# [4] = variants of: B1; assay: self-cleavage kobs at 2500 uM GlcN6P; higher = faster cleavage; RNA array
# How it was run: as §1
# [5] = variants of: B1; assay: self-cleavage kobs at 10000 uM GlcN6P; higher = faster cleavage; RNA array
# How it was run: as §1
Variant,self-cleavage kobs at 40 uM GlcN6P [1],self-cleavage kobs at 160 uM GlcN6P [2],self-cleavage kobs at 640 uM GlcN6P [3],self-cleavage kobs at 2500 uM GlcN6P [4],self-cleavage kobs at 10000 uM GlcN6P [5]
A15C U49C,< 1e-05 s⁻¹,< 1e-05 s⁻¹,< 1e-05 s⁻¹,< 1e-05 s⁻¹,< 1e-05 s⁻¹
A48C G63U,< 1e-05 s⁻¹,–,< 1e-05 s⁻¹,< 1e-05 s⁻¹,< 1e-05 s⁻¹
A39U U54G U55G,0.000181 ± 6.2e-05 s⁻¹,–,0.00525 ± 0.0012 s⁻¹,0.0171 ± 0.0034 s⁻¹,–
A15G G44U G51C A52G U56G,< 1e-05 s⁻¹,< 1e-05 s⁻¹,< 1e-05 s⁻¹,–,–
A36U G51A,< 1e-05 s⁻¹,< 1e-05 s⁻¹,–,–,< 1e-05 s⁻¹
U54G C71A,0.00016 ± 3.2e-05 s⁻¹,–,–,0.00157 ± 0.00049 s⁻¹,0.00496 ± 0.001 s⁻¹
G7C C34G,< 1e-05 s⁻¹,< 1e-05 s⁻¹,< 1e-05 s⁻¹,< 1e-05 s⁻¹,< 1e-05 s⁻¹
C16U U30A G37A G40U U65A,< 1e-05 s⁻¹,–,–,–,< 1e-05 s⁻¹
G44C U57C,< 1e-05 s⁻¹,< 1e-05 s⁻¹,< 1e-05 s⁻¹,< 1e-05 s⁻¹,< 1e-05 s⁻¹
A33U U56A C71A,< 1e-05 s⁻¹,–,–,–,–
A36U G37C G41C U55G,< 1e-05 s⁻¹,–,< 1e-05 s⁻¹,–,< 1e-05 s⁻¹
G32C A39C,< 1e-05 s⁻¹,< 1e-05 s⁻¹,–,–,–
C8U U30C,< 1e-05 s⁻¹,< 1e-05 s⁻¹,< 1e-05 s⁻¹,< 1e-05 s⁻¹,< 1e-05 s⁻¹
U47A U57G,< 1e-05 s⁻¹,–,–,–,4.75e-05 ± 8.7e-06 s⁻¹
C58A A64U,< 1e-05 s⁻¹,–,–,< 1e-05 s⁻¹,< 1e-05 s⁻¹
G62U C67G,< 1e-05 s⁻¹,–,< 1e-05 s⁻¹,–,< 1e-05 s⁻¹
G7C G35U,< 1e-05 s⁻¹,< 1e-05 s⁻¹,–,< 1e-05 s⁻¹,–
U46C G62C,< 1e-05 s⁻¹,–,–,–,< 1e-05 s⁻¹
A6G A15C C70A,< 1e-05 s⁻¹,–,–,–,–
U30G G43C,< 1e-05 s⁻¹,–,–,< 1e-05 s⁻¹,< 1e-05 s⁻¹
G51C U55A,< 1e-05 s⁻¹,–,< 1e-05 s⁻¹,–,–
U30C A64C,< 1e-05 s⁻¹,–,< 1e-05 s⁻¹,–,< 1e-05 s⁻¹
G41C G44U,< 1e-05 s⁻¹,< 1e-05 s⁻¹,< 1e-05 s⁻¹,< 1e-05 s⁻¹,< 1e-05 s⁻¹
G41C G44A,< 1e-05 s⁻¹,< 1e-05 s⁻¹,< 1e-05 s⁻¹,–,< 1e-05 s⁻¹

Variant,self-cleavage kobs at 40 uM GlcN6P [1],self-cleavage kobs at 160 uM GlcN6P [2],self-cleavage kobs at 640 uM GlcN6P [3],self-cleavage kobs at 2500 uM GlcN6P [4],self-cleavage kobs at 10000 uM GlcN6P [5]
G40C G51A,< 1e-05 s⁻¹,–,< 1e-05 s⁻¹,< 1e-05 s⁻¹,< 1e-05 s⁻¹
U30G U45A C71U,0.000183 ± 4.7e-05 s⁻¹,–,–,–,0.00282 ± 0.0011 s⁻¹
C34G G43C U47A U49C U55G,< 1e-05 s⁻¹,–,–,–,< 1e-05 s⁻¹
C8A C50U G51C A53C U65A,< 1e-05 s⁻¹,–,< 1e-05 s⁻¹,–,–
G29C C50G,5.44e-05 ± 1.3e-05 s⁻¹,0.000194 ± 5.9e-05 s⁻¹,0.000208 ± 4.9e-05 s⁻¹,0.000178 ± 3.6e-05 s⁻¹,2.54e-05 ± 1.1e-05 s⁻¹
C34G A64C U65A,< 1e-05 s⁻¹,–,–,–,–
G13A G59C,< 1e-05 s⁻¹,< 1e-05 s⁻¹,–,–,< 1e-05 s⁻¹
G9U A36C,< 1e-05 s⁻¹,–,< 1e-05 s⁻¹,< 1e-05 s⁻¹,< 1e-05 s⁻¹
G29C A36U A39G G63U,< 1e-05 s⁻¹,–,–,–,< 1e-05 s⁻¹
A42C G63A,< 1e-05 s⁻¹,< 1e-05 s⁻¹,< 1e-05 s⁻¹,–,< 1e-05 s⁻¹
C10G U30A,< 1e-05 s⁻¹,< 1e-05 s⁻¹,< 1e-05 s⁻¹,< 1e-05 s⁻¹,< 1e-05 s⁻¹
A15G A42G C68U,0.000393 ± 0.00011 s⁻¹,–,–,–,0.0101 ± 0.0045 s⁻¹
G63A,< 1e-05 s⁻¹,–,< 1e-05 s⁻¹,–,< 1e-05 s⁻¹
G60A G66A,< 1e-05 s⁻¹,< 1e-05 s⁻¹,–,–,–
A6C G40C,< 1e-05 s⁻¹,–,< 1e-05 s⁻¹,< 1e-05 s⁻¹,–
A6C C67G,< 1e-05 s⁻¹,–,–,–,–
A6C C16G C71A,< 1e-05 s⁻¹,–,–,–,–
A33U U47A U54C,< 1e-05 s⁻¹,–,–,4.24e-05 ± 2e-05 s⁻¹,7.82e-05 ± 1.8e-05 s⁻¹
G9U A12U A33G G40U,< 1e-05 s⁻¹,–,–,–,–
A12G A36G G38C,< 1e-05 s⁻¹,–,–,–,–
G13U C50G C61G,8.16e-05 ± 1.3e-05 s⁻¹,–,–,–,0.000116 ± 1.9e-05 s⁻¹
G40A G41C A48C C68A C70U,< 1e-05 s⁻¹,–,–,–,< 1e-05 s⁻¹
U49C A52U,< 1e-05 s⁻¹,< 1e-05 s⁻¹,< 1e-05 s⁻¹,< 1e-05 s⁻¹,< 1e-05 s⁻¹
A33U A42U U65G,< 1e-05 s⁻¹,–,–,–,< 1e-05 s⁻¹

Variant,self-cleavage kobs at 40 uM GlcN6P [1],self-cleavage kobs at 160 uM GlcN6P [2],self-cleavage kobs at 640 uM GlcN6P [3],self-cleavage kobs at 2500 uM GlcN6P [4],self-cleavage kobs at 10000 uM GlcN6P [5]
U54A C67A,0.000554 ± 0.00013 s⁻¹,0.000242 ± 4.9e-05 s⁻¹,0.00148 ± 0.00034 s⁻¹,0.00137 ± 0.00037 s⁻¹,0.00561 ± 0.0016 s⁻¹
G37C G44U U46G C71G,< 1e-05 s⁻¹,–,–,–,–
A53G C70U,0.00158 ± 0.00015 s⁻¹,0.00129 ± 0.00027 s⁻¹,0.0139 ± 0.0036 s⁻¹,–,0.0616 ± 0.014 s⁻¹
G40U U55G,0.000102 ± 1.4e-05 s⁻¹,0.000149 ± 2.2e-05 s⁻¹,0.000543 ± 9.9e-05 s⁻¹,0.00142 ± 0.00023 s⁻¹,0.00228 ± 0.00046 s⁻¹
C8A G43U,< 1e-05 s⁻¹,–,–,< 1e-05 s⁻¹,< 1e-05 s⁻¹
G60U A64G,< 1e-05 s⁻¹,< 1e-05 s⁻¹,< 1e-05 s⁻¹,< 1e-05 s⁻¹,< 1e-05 s⁻¹
G51A C61G,< 1e-05 s⁻¹,< 1e-05 s⁻¹,–,–,–
C50G G66U C67A,0.000105 ± 1.9e-05 s⁻¹,–,–,4.67e-05 ± 1.7e-05 s⁻¹,0.000166 ± 2.7e-05 s⁻¹
C8G G29C A64G,< 1e-05 s⁻¹,–,–,–,–
C8U C68G,0.000619 ± 0.00023 s⁻¹,–,–,–,0.000231 ± 5.8e-05 s⁻¹
C11U C61G U69C,9.12e-05 ± 2.3e-05 s⁻¹,–,–,–,4.04e-05 ± 1.7e-05 s⁻¹
C8U C10G,< 1e-05 s⁻¹,–,< 1e-05 s⁻¹,–,< 1e-05 s⁻¹
G7A C10G C50U,< 1e-05 s⁻¹,–,–,–,–
A12C U54C,0.00107 ± 0.00014 s⁻¹,0.00117 ± 0.00027 s⁻¹,0.0063 ± 0.0021 s⁻¹,0.0137 ± 0.0032 s⁻¹,0.0203 ± 0.0043 s⁻¹
A12U C50G G59U U69C,0.000143 ± 4.1e-05 s⁻¹,–,–,8.19e-05 ± 3e-05 s⁻¹,0.000187 ± 4.7e-05 s⁻¹
A42U A52C,< 1e-05 s⁻¹,< 1e-05 s⁻¹,< 1e-05 s⁻¹,< 1e-05 s⁻¹,–
G7U G59U,< 1e-05 s⁻¹,< 1e-05 s⁻¹,–,< 1e-05 s⁻¹,< 1e-05 s⁻¹
G7U A14G G32C A39U,< 1e-05 s⁻¹,–,–,–,–
C11A G41U,< 1e-05 s⁻¹,< 1e-05 s⁻¹,< 1e-05 s⁻¹,< 1e-05 s⁻¹,–
A6U U49C,< 1e-05 s⁻¹,< 1e-05 s⁻¹,–,< 1e-05 s⁻¹,< 1e-05 s⁻¹
A6U G32C G59A,< 1e-05 s⁻¹,–,–,–,< 1e-05 s⁻¹
A14G G32C U49A,< 1e-05 s⁻¹,–,–,–,< 1e-05 s⁻¹
A42G U45G,0.000836 ± 0.00024 s⁻¹,–,–,–,0.0514 ± 0.014 s⁻¹
C8A C67G C68G,5.09e-05 ± 1.9e-05 s⁻¹,–,0.000231 ± 5.6e-05 s⁻¹,–,4.91e-05 ± 1.2e-05 s⁻¹

Variant,self-cleavage kobs at 40 uM GlcN6P [1],self-cleavage kobs at 160 uM GlcN6P [2],self-cleavage kobs at 640 uM GlcN6P [3],self-cleavage kobs at 2500 uM GlcN6P [4],self-cleavage kobs at 10000 uM GlcN6P [5]
U2C C11U G40A U45G,< 1e-05 s⁻¹,–,–,–,–
A42G A52G U65G,< 1e-05 s⁻¹,–,–,8.47e-05 ± 2.8e-05 s⁻¹,0.000346 ± 8.1e-05 s⁻¹
G44A C61G,< 1e-05 s⁻¹,< 1e-05 s⁻¹,–,< 1e-05 s⁻¹,< 1e-05 s⁻¹
U30G G66A,0.000144 ± 3.9e-05 s⁻¹,–,–,–,–
U45G U69A,0.000333 ± 8.4e-05 s⁻¹,–,–,0.000589 ± 0.00025 s⁻¹,0.000362 ± 7.9e-05 s⁻¹
C8A G66C,< 1e-05 s⁻¹,–,–,< 1e-05 s⁻¹,–
C8A G29A G51U,< 1e-05 s⁻¹,–,–,–,< 1e-05 s⁻¹
C10U A12G G13C,< 1e-05 s⁻¹,–,–,–,< 1e-05 s⁻¹
G41A G44A,< 1e-05 s⁻¹,< 1e-05 s⁻¹,–,< 1e-05 s⁻¹,< 1e-05 s⁻¹
U55A A64U C68U,< 1e-05 s⁻¹,–,–,–,–
A6G G35U U56A,< 1e-05 s⁻¹,–,–,–,–
A33G C50A A53C G60C,< 1e-05 s⁻¹,–,–,–,–
A14G G21U C67U,0.000937 ± 0.00021 s⁻¹,–,–,–,–
C16U A39C C68A,< 1e-05 s⁻¹,–,–,–,< 1e-05 s⁻¹
A15C G44U C61G C67G,< 1e-05 s⁻¹,–,< 1e-05 s⁻¹,< 1e-05 s⁻¹,< 1e-05 s⁻¹
A15C G29A G60A,< 1e-05 s⁻¹,–,–,–,–
G35C A42G U49A G66C,< 1e-05 s⁻¹,–,–,< 1e-05 s⁻¹,< 1e-05 s⁻¹
C8G U56G C70U C71A,< 1e-05 s⁻¹,< 1e-05 s⁻¹,< 1e-05 s⁻¹,< 1e-05 s⁻¹,–
G13A G43C U65G,< 1e-05 s⁻¹,–,–,< 1e-05 s⁻¹,–
U45A C70G,0.000107 ± 4.1e-05 s⁻¹,0.000105 ± 3.6e-05 s⁻¹,0.000198 ± 7.9e-05 s⁻¹,0.00053 ± 0.00019 s⁻¹,0.000826 ± 0.00032 s⁻¹
G21A G44U U57G C67A,< 1e-05 s⁻¹,–,–,–,–
C10G C34U G38C A64C C67U,< 1e-05 s⁻¹,–,–,–,< 1e-05 s⁻¹
C8U A53C,< 1e-05 s⁻¹,< 1e-05 s⁻¹,< 1e-05 s⁻¹,< 1e-05 s⁻¹,< 1e-05 s⁻¹
